According to patent publication US20260209374A1 (ENOSI THERAPEUTICS, published 2026):
Where a chain is given by its changes, count along the chain named. Where “and” joins values, the source holds several entries; their conditions need not be identical. Equal entries are not always repeated. Each block holds one binder with its values, some of them ahead of it.

Key:
[1] = molecular target: T1, TNFR1 on the cells of the TNF-dependent bioassays (THP1 cells in Examples 4 and 6) (human, UniProt P19438 30-455); assay: cell-based or functional assay
T1 sequence: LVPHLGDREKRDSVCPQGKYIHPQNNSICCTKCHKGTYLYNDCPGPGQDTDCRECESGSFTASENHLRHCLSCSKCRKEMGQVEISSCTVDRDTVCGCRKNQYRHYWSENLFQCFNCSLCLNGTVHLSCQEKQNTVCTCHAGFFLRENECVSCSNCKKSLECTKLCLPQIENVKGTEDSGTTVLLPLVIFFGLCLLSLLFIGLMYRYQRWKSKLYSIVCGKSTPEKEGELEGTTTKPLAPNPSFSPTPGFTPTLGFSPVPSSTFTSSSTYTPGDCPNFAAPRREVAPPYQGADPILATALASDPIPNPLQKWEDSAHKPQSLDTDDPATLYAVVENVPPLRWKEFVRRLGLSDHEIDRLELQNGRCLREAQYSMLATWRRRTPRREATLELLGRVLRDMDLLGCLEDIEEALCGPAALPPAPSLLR

[2] = molecular target: T2, human soluble TNFR2 (human, UniProt P20333 23-257); assay: SPR; VHH-Fc captured by anti-human IgG (Fc) antibody on CM5 sensor chip, TNFR2 as analyte
T2 construct: also called hTNFR2; TNF receptor type 2
T2 sequence: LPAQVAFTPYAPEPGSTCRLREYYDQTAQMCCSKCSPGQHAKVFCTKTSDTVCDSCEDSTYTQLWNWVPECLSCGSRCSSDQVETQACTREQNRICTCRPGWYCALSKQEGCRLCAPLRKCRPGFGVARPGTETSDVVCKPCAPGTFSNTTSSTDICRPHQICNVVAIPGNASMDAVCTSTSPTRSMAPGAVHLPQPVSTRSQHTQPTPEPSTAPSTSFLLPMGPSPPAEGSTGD

[3] = molecular target: T3, human soluble TNFR1 (human, UniProt P19438 30-211); assay: SPR; VHH-Fc captured by anti-human IgG (Fc) antibody on CM5 sensor chip, human soluble TNFR1 as analyte
T3 construct: also called hTNFR1; hTNFR-1
T3 sequence: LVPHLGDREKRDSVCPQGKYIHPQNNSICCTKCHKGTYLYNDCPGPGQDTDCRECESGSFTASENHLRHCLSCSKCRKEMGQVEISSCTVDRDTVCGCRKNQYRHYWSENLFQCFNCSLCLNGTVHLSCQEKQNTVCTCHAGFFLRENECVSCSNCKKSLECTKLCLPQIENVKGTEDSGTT
Excerpt: CM5 sensor chip (Cytiva #BR100530) was coated with an anti-human IgG (Fc) antibody (Cytiva #29234600) to capture the EN1206-BV and EN1208-BV. The human soluble TNFR1 was used as analyte for binding flow.

[4] = molecular target: T3, human soluble TNFR1; assay: SPR; VHH-Fc captured on Series S Protein A sensor chip, human soluble TNFR1 as analyte (0.781-100 nM), 1:1 binding fit
Excerpt: (§1) Series S Sensor Chip Protein A (Cytiva #29127556) was used to immobilize the Fc portion of the VHH/Fc proteins. The human soluble TNFR1 and TNFR2 are used for the SPR binding flow.

[5] = molecular target: T2, human soluble TNFR2; assay: SPR; VHH-Fc captured on Series S Protein A sensor chip, human soluble TNFR2 as analyte
Excerpt: as §1

[6] = molecular target: T4, Human TNFR1/CD120a protein, His & Avi tag (human, UniProt P19438 30-211); assay: BLI, Octet RED96; TNFR1-His-Avi immobilised on anti-penta-His (HIS1K) biosensor, EN1206-mv 0.412-100 nM
T4 construct: Captured on HIS1K or streptavidin biosensors; also called TNFR1-His-avi tag protein; immobilized soluble human TNFR1; not shown: His tag and Avi tag
T4 sequence: T3 sequence
Protocol: An Octet instrument RED96 was used for the assay. Octat anti-penta His biosensor (HIS1K) and Octet Streptavidin (SA) biosensor were used to immobilize the TNFR1-His-avi tag protein. […] Octet RED96 was used to measure the binding affinity of EN1206-mv and EN1208-bv. […] A dose-dependent binding of EN1208-bv to the immobilized TNFR1 on SA chip was detected within the concentration range of 3.7 nm to 300 nM (FIG. 11B).
The experiments started with the determination of the binding specificity and affinity of EN1206 and EN1208 to the immobilized human soluble TNFR1. A concentration-dependent binding of EN1206 and EN1208 to the TNFR1 was observed, respectively (Table 15, FIGS. 11A-11B). Due to a lack of detectable dissociation of EN1208-BV after its binding to the immobilized TNFR1 within the dissociation assay time frame (~5 min), the on-rate (ka) and off-rate (kd) could not be calculated. Thus, an affinity (KD) for EN1208 was estimated (Table 15).

[7] = molecular target: T5, extracellular domain of TNFR-1 (Example 4) (UniProt P19438 30-211, limits assumed); assay: SPR (Biacore method)
T5 construct: extracellular domain; also called TNFR1 extracellular domain
T5 sequence (looked up): T3 sequence

[8] = molecular target: T1, TNFR1 on the cells of the TNF-dependent …; assay: cell-based or functional assay; remark: listed apart in the source
[9] = molecular target: T3, human soluble TNFR1; assay: SPR (format not described)
[10] = molecular target: T5, extracellular domain of TNFR-1 (Example …); assay: competition assay, Vhh inhibition of TNF-α binding to TNFR1 extracellular domain; competitor TNF-α
Protocol: Competition assays of Vhh inhibition of TNF-α binding to TNFR1 extracellular domain also were performed as described in Richter et al. (2019).

B1: EN-1206-Fc-BV (Fc fusion)
chain: EVQLLESGGGLVQPGGSLRLSCAASGFTFAHETMVWVRQAPGKGLEWVSHIPPDGQDPFYADSVKGRFTISRDNSKNTLYLQMNSLRAEDTAVYHCALLPKRGPWFDYWGQGTLVTVSSDKTHTCPPCPAPEAAGGPSVFLFPPKPKDTLYITREPEVTCVVVDVSHEDPEVKFNWYVDGVEVHNAKTKPREEQYNSTYRVVSVLTVLHQDWLNGKEYKCKVSNKALGAPIEKTISKAKGQPREPQVYTLPPSRDELTKNQVSLTCLVKGFYPSDIAVEWESNGQPENNYKTTPPVLDSDGSFFLYSKLTVDKSRWQQGNVFSCSVMHEALHNHYTQKSLSLSPGK
notes: Homodimeric, bivalent; In some paragraphs 'EN1206' also means the HSA fusion or the dAb itself; also called EN1206-BV; EN1206 bivalent
fold improvement over Etanercept in inhibition of IL-8 expression, TNF-stimulated THP1 cells (qPCR) [1]: 5.9 fold | fold improvement over Etanercept in inhibition of TNF expression, TNF-stimulated THP1 cells (qPCR) [1]: 15 fold | relative gene expression of IL8/CXCL8 (qPCR, THP1 cells, TNF 100 ng/ml), 1 nM inhibitor, against baseline [1]: 1.75 fold | relative potency against 206dAb, suppression of TNF-induced expression of IL8/CXCL8 in THP1 cells, 1 nM [1]: 7 fold | relative potency against 206dAb, suppression of TNF-induced expression of TNF in THP1 cells, 1 nM [1]: 6.5 fold | binding result [2]: no binding | Kd [3]: 1.49 nM | Kd [4]: 0.185 nM

B2: EN-1206-Fc-MV (Fc fusion)
chain 1: B1 chain with T265W
chain 2: DKTHTCPPCPAPEAAGGPSVFLFPPKPKDTLYITREPEVTCVVVDVSHEDPEVKFNWYVDGVEVHNAKTKPREEQYNSTYRVVSVLTVLHQDWLNGKEYKCKVSNKALGAPIEKTISKAKGQPREPQVYTLPPSRDELTKNQVSLSCAVKGFYPSDIAVEWESNGQPENNYKTTPPVLDSDGSFFLVSKLTVDKSRWQQGNVFSCSVMHEALHNHYTQKSLSLSPGK
notes: One-armed (monovalent) knob-into-hole heterodimer; the leader is cleaved on expression; also called EN1206-MV; EN1206-mv
fold improvement over Etanercept in inhibition of IL-8 expression, TNF-stimulated THP1 cells (qPCR) [1]: 10.6 fold | fold improvement over Etanercept in inhibition of TNF expression, TNF-stimulated THP1 cells (qPCR) [1]: 6.8 fold | relative gene expression of IL8/CXCL8 (qPCR, THP1 cells, TNF 100 ng/ml), 1 nM inhibitor, against baseline [1]: 1.75 fold | relative potency against 206dAb, suppression of TNF-induced expression of IL8/CXCL8 in THP1 cells, 1 nM [1]: 9.3 fold | relative potency against 206dAb, suppression of TNF-induced expression of TNF in THP1 cells, 1 nM [1]: 9 fold | binding result [5]: no binding | Kd [6]: 0.314 nM | koff [6]: 0.000284 s⁻¹ | kon [6]: 903000 M⁻¹ s⁻¹ | Kd [4]: 0.388 nM

B5: EN-1000-206 (VHH)
VHH: EVQLLESGGGLVQPGGSLRLSCAASGFTFAHETMVWVRQAPGKGLEWVSHIPPDGQDPFYADSVKGRFTISRDNSKNTLYLQMNSLRAEDTAVYHCALLPKRGPWFDYWGQGTLVTVSS
relative gene expression of IL8/CXCL8 (qPCR, THP1 cells, TNF 100 ng/ml), 1 nM inhibitor, against baseline [1]: 8 fold

Now from value to binder:

Kd [7]: 1000 nM | TNF Dependent Bioassay (IC50): VCAM [8]: 3 nM
B3: Vhh-2 (VHH, not shown: small tags and cut ends)
VHH: EVQLLESGGGLVQPGGSLRLSCAASGFTFSQYRMHWVRQAPGKSLEWVSSIDTRGSSTYYADPVKGRFTISRDNSKNTLYLQMNSLRAEDTAVYYCAKAVTMFSPFFDYWGQGTLV

Kd [7]: 0.00066 nM | Kd [9]: 0.407 nM and 0.3 nM to 0.5 nM (2×) | TNF Dependent Bioassay (IC50): VCAM [8]: 0.3 nM | IC50 [10]: ~1 nM
B4: Vhh-4 (VHH)
VHH: B5 VHH
